Results on 1 molecule are retold here after patent publication US20050283857A1 (UNIVERSITY OF GEORGIA RESEARCH FOUNDATION, published 2005).

The test addresses Cry1Ab toxin (Bacillus thuringiensis). In words: 125I-Cry1Ab toxin binding saturation assay on S2 cells; dissociation constant (Kcom).

B1: Cad7-12 truncated Bt-R1a cadherin expressed in S2 cells (receptor)
chain: GTLEQNFRVREMSAGGLVVGSVRADDIDGPLYNQVRYTIFPREDTDKDLIMIDFLTGQISVNTSGAIDADTPPRFHLYYTVVASDRCSTEDPADCPPDPTYWETEGNITIHITDTNNKVPQAETTKFDTVVYIYENATHLDEVVTLIASDLDRDEIYHTVSYVINYAVNPRLMNFFSVNRETGLVYVDYETQGSGEVLDRDGDEPTHRIFFNLIDNFMGEGEGNRNQNDTEVLVILLDVNDNAPELPPPSELSWTISENLKQGVRLEPHIFAPDRDEPDTDNSRVGYEILNLSTERDIEVPELFVMIQIANVTGELETAMDLKGYWGTYAIHIRAFDHGIPQMSMNETYELIIHPFNYYAPEFVFPTNDAVIRLARERAVINGVLATVNGEFLERISATDPDGLHAGVVTFQVVGDEESQRYFQVVNDGANLGSLRLLQAVPEEIREFRITIRATDQGTDPGPLSTDMTFRVVFVPTQGEPRFASSEHAVAFIEKSAGMEESHQLPLAQDIKNHLCEDDCHSIYYRIIDGNSEGHFGLDPVRNRLFLKKELIREQSASHTLQVAASNSPDGGIPLPASILTVTVTVREADPRPVFMRELYTAGISTADSIGRELLRLHATQSEGAAITYAIDYDTMVVDPSLEAVRQSAFVLNAQTGVLTLNIQPTATMHGLFKFEVTATDTAGAQDRTDVTVYVVSSQNRVYFVFVNTLQQVEDNRDFIADTFSAGFNMTCNIDQVVPANDPVTGVALEHSTQMRGHFIRDNVPVLADEIEQIRSDLVLLSSIQTTLAARSLVLQDLLTNSSPDSAPDSSLTVYVLASLSAVLGFMCLVLLLTFIIRTRALNRRLEALSMTKYGSLDSGLNRAGIAAPGTNKHTVEGSNPIFNEAIKTPDLDAISEGSNDSDLIGIEDLPHFGNVFMDPEVNEKANGYPEVANHNNNFAFNPTPFSPEFVNGQFRKI
For B1, binding was characterised by a dissociation constant (Kd) of 2.05 nM.
